Experimental findings from US20160362487A1 (Regeneron, published 2016) are described below.

Test [1] has as its target T1, biotinylated hIL-33 protein (R&D systems, Cat #3625-IL/CF) (human, UniProt O95760 112-270, biotinylated (sites not given)).
T1 construct: Same commercial protein as m21, biotin-labelled; also called biotin-hIL-33
T1 sequence (looked up): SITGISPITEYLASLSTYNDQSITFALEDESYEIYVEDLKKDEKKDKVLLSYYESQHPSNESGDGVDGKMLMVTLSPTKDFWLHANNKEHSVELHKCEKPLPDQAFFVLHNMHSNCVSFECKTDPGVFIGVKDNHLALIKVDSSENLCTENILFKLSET
The experiment in a line: competition ELISA, 30 pM biotin-hIL-33 on coated hST2-hFc. Here is the method:
(§1) The ability of anti-IL-33 antibodies to block either human IL-33 (hIL-33) or cynomologus monkey IL-33 binding to the human ST2 receptor was measured using a competition sandwich ELISA. […] The antibody/IL-33 mixtures were incubated for 1 hour at room temperature before they were transferred to the hST2-hFc-coated microtiter plates. After incubating for 1 hour at room temperature, the wells were then washed, and plate-bound biotin-hIL-33 was detected with streptavidin conjugated with horse-radish peroxidase (HRP) (Thermo Scientific, Cat # N200), and plate-bound MfIL-33-6His was detected with a HRP conjugated anti-His monoclonal antibody (Qiagen, #34460). All samples were developed with a TMB solution (BD biosciences, #51-2607KC) to produce a colorimetric reaction and then quenched by acidification with 1M sulfuric acid before measuring absorbance at 450 nm on a Victor X5 plate reader. Data analysis was performed using a sigmoidal dose-response model within Prism™ software. […] Percent blockade was calculated as the ratio of the reduction in signal observed in the presence of antibody relative to the difference between the signal with IL-33 alone and background (signal from HRP-conjugated secondary antibody or streptavidin alone). The absorbance measured for the constant concentration of biotin-hIL-33 or MfIL-33-6His alone is defined as 0% blocking and the absorbance measured for no added IL-33 is defined as 100% blocking.

For test [2], the target named is T2, human IL-33 (R&D Systems, #3625-IL-010/CF) (human, UniProt O95760 112-270).
T2 construct: Commercial recombinant protein; also called hIL-33; interleukin-33
T2 sequence (looked up): T1 sequence (looked up)
Description: BLI; hIL-33 pre-mixed with mAb-2 H1M9565N. The procedure:
Binding competition between a panel of different anti-IL-33 monoclonal antibodies was determined using a real time, label-free bio-layer interferometry assay on an Octet® HTX biosensor (ForteBio, A Division of Pall Life Sciences). The experiment was performed at 25° C. using a buffer of 0.01M HEPES pH7.4, 0.15M NaCl, 0.05% v/v Surfactant Tween-20, and 0.1 mg/ml BSA (HBS-ET kinetics buffer) with the plate shaking at a speed of 1000 rpm. To assess whether two antibodies were able to compete with one another for binding to human IL-33, a pre-mix assay format was used where 100 nM of human IL-33 (R&D Systems; #3625-IL-010/CF) was pre-mixed with 500 nM of different anti-IL-33 monoclonal antibodies (subsequently referred to as mAb-2) for at least 2 hours prior to running the binding competition assay. […] Following the capture step, unoccupied anti-mouse Fc polyclonal antibody and anti-human Fc polyclonal antibody on the Octet biosensors were saturated by submerging them for 4 minutes into wells containing 200 μg/mL of a non-specific monoclonal antibody with a mouse Fc or with a human Fc, respectively. Finally, the Octet biosensors were immersed for 4 minutes into wells containing the pre-mixed samples of 100 nM of human IL-33 and 500 nM of mAb-2. At the end of each cycle, the non-covalently captured anti-IL-33 antibodies along with the bound pre-complex of human IL-33 and mAb-2 were removed from the biosensors using three alternate 20 second immersions into 10 mM HCl followed by submerging into HBS-ET kinetics buffer. The biosensors were washed in HBS-ET kinetics buffer in between every step of the experiment. The real-time binding response was monitored during the binding events, and the binding response (in units of nm) at the end of every step was recorded.
A general note: Biolayer interferometry detects binding as a change in optical thickness at a sensor tip.

Test [3] deals with T2, human IL-33 (R&D Systems, …). The experiment in a line: SPR 37C, pH6.0 chase, mAb captured. Here is the method: (§2) Equilibrium dissociation constants (KD values) for IL-33 binding to purified anti-IL-33 monoclonal antibodies were determined using a real-time surface plasmon resonance biosensor using a Biacore 4000 instrument. The Biacore sensor surface was first derivatized by amine coupling with either a polyclonal rabbit anti-mouse antibody (GE, # BR-1008-38) or with a monoclonal mouse anti-human Fc antibody (GE, # BR-1008-39) to capture anti-IL-33 monoclonal antibodies expressed with mouse or with human IgG4 constant regions, respectively. All Biacore binding studies were performed in 0.01M ADA pH 7.4, 0.15M NaCl, 3 mM EDTA, and 0.05% v/v Surfactant Tween-20 (ABS-ET running buffer). […] Association of either hIL-33 or MfIL-33-6His to the captured monoclonal antibody was monitored for 4 minutes and their dissociation in ABS-ET running buffer was monitored for 10 minutes. The effect of reduced pH on the binding of each anti-IL-33 antibody to either hIL-33 or MfIL-33-6His was studied using an in-line pH chase assay format in 0.01M ADA pH 6.0, 0.15M NaCl, 3 mM EDTA, and 0.05% v/v Surfactant Tween-20 (ABS-ET pH6 buffer). To achieve this, association of either hIL-33 or MfIL-33-6His to the captured monoclonal antibody was monitored for 4 minutes in ABS-ET running buffer. Following a 30 second dissociation of either hIL-33 or MfIL-33-6His in ABS-ET running buffer, ABS-ET pH6 buffer was injected for 3 minutes, and the analyte dissociation under the low-pH conditions was measured. All the binding kinetic experiments were performed at both 25° C. and 37° C. Kinetic association (kₐ) and dissociation (kd) constants were determined by fitting the real-time sensorgrams to a 1:1 binding model using Scrubber 2.0c curve fitting software. Binding dissociation equilibrium constants (KD) and dissociative half-lives (t½) were calculated from the kinetic rate constants as: […]

Test [4] addresses T3, cynomolgus monkey IL-33 expressed with a C-terminal hexahistidine tag (cynomolgus monkey).
T3 construct: also called MfIL-33-6His; Mf-IL-33-6His
T3 chain: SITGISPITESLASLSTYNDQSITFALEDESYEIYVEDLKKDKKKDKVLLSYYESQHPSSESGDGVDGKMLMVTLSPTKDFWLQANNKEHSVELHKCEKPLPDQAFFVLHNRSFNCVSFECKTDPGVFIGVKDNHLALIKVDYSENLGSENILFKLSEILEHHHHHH
The experiment in a line: competition ELISA, 150 pM MfIL-33-6His on coated hST2-hFc. Here is the method:
as §1
A general note: In an ELISA, binding on a coated surface is turned into a signal by an enzyme label.

Test [5] has as its target T3, cynomolgus monkey IL-33 expressed with …. The experiment in a line: SPR 37C, pH6.0 chase, mAb captured. The procedure:
as §2

Residue numbers refer to the chain shown, from its start. Names may count otherwise.

B1: H4H9629P (antibody, human IgG4, V domains shown)
VH: EVQLVESGGGLVQPGGSLRLSCAASGFTFRSFAMSWVRQAPGKGLELVSDLRTSGGSTYYADSVKGRLTISRDNSKNTLYLQMNSLRAEDTAVYYCAKSHYSTSWFGGFDYWGQGTLVTVSS
VL: DIQMTQSPSSVSASVGDRVTITCRASQGFSSWLAWYQQKPGKAPKLLIYAASSLQSGVPSRFSGSGSGTDFTLTITNLQPEDFATYYCQQANSFPLTFGGGTKVEIK
notes: Human IgG4 Fc (H4H)
One may read the IC50 as the point on the concentration scale where inhibition reaches its midpoint. Usually koff stands for the first-order rate constant of dissociation. As a reminder, the t½ is the time in which the quantity being followed falls by half. For the molecule B1, in test [1], the “% Maximum blocking” value stood at 80% and the IC50 turned out to be 0.45 nM. The “mAb-1 Binding to the Pre-complex of mAb-2 & hIL-33” value (shortened to “mAb-1 Binding to the Pre-complex”) in test [2] amounted to 0.74 nm. In test [3], the off-rate constant (koff) was 0.00582 s⁻¹, the t½ is 2 min and the “t½ Ratio (pH 7.4/pH 6.0)” value is 9.

B2: H4H9672P (antibody, human IgG4, V domains shown)
VH: EVQLVESGGGLVQPGGSLRLSCAASGFTLRSYVMYWVRQGPGKGLEGVSGISGSSGGTYYTDSVKGRFTISRDNSKNTLFLQMNSLRAEDTAVYFCARSVYSTTWYGGFQHWGQGTLVTVSS
VL: B1 VL with A13V, G28V, F29I, Q38L, T76S, N77G, T85V, A91T
notes: Human IgG4 Fc (H4H)
Turning to B2, in test [1], the “% Maximum blocking” value is 63% and the IC50 was 0.44 nM. For the same molecule, in test [4], the “% Maximum blocking” value worked out at 48% and the IC50 came to 5.5 nM. Further, in test [2], the “mAb-1 Binding to the Pre-complex” value amounted to 0.52 nm. In test [3], the koff was 0.00541 s⁻¹, the t½ amounted to 2 min and the “t½ Ratio (pH 7.4/pH 6.0)” value worked out at 4.7.

B3: H4H9633P (antibody, human IgG4, V domains shown)
VH: EVQLVESGGGLVQPGGSLRLSCAASGFTFSSYVMSWVRQAPGKGLEWVSSISGNGGSTNYADSVKGRFTISRDNSKNTLFLEMNSLRAEDTAVYYCAKSLGTTTTFLGFDYWGQGTLVTVSS
VL: B1 VL with F29I, D70Y, T76S, N77S
notes: Human IgG4 Fc (H4H)
Turning to B3, in test [1], the “% Maximum blocking” value stood at 66% and the IC50 stood at 0.44 nM. Besides, in test [2], the “mAb-1 Binding to the Pre-complex” value worked out at 0.66 nm. In test [3], the koff was 0.0024 s⁻¹, the t½ turned out to be 5 min and the “t½ Ratio (pH 7.4/pH 6.0)” value was 3.5.

B4: H4H9676P (antibody, human IgG4, V domains shown)
VH: EVQLVESGGGLVQPGGSLRLSCSASGFTFSSYAMNWVRQAPGKGLEWVTAISGSGGGTYYADSVKGRFTISRDNSKNSLFLQLNSLRAEDTAVYYCAKQTYTSSWYGGFDIWGQGTMVTVSS
VL: B1 VL with K39I, S53R, S63R, T76S, N77S
notes: Human IgG4 Fc (H4H)
B4: in test [1], the “% Maximum blocking” value amounted to 54% and the concentration for half-maximal inhibition (IC50) was 0.46 nM. In test [4], the “% Maximum blocking” value turned out to be 57% and the IC50 was 3.2 nM. Moreover, the “mAb-1 Binding to the Pre-complex” value in test [2] came out at 0.45 nm. For the same molecule, in test [3], the koff was 0.00524 s⁻¹, the t½ amounted to 2 min and the “t½ Ratio (pH 7.4/pH 6.0)” value came out at 4.1.

B5: H4H9666P (antibody, human IgG4, V domains shown)
VH: QVQLVQSGAEVKKPGASVKVSCKASGYTFTSYGISWVRQAPGQGLEWMGWIRAYNGYTNYAQKFQGRVTMTTDTSTNTAYMELRTLNSDDTAVYYCARDRYSGSFHGNFDYWGQGTLVTVSS
VL: B1 VL with F29I, S30F, L46V, S53N, Q55E, T76S, N77S, F94L
notes: Human IgG4 Fc (H4H)
In the case of B5, in test [1], the “% Maximum blocking” value was 71% and the IC50 worked out at 0.6 nM. In test [4], the “% Maximum blocking” value amounted to 40% and the concentration for half-maximal inhibition (IC50) came to 13 nM. The “mAb-1 Binding to the Pre-complex” value in test [2] was found to be 0.56 nm. Also, in test [3], the koff worked out at 0.0068 s⁻¹, the t½ stood at 2 min and the “t½ Ratio (pH 7.4/pH 6.0)” value stood at 8.8.

B6: H1M9566N (antibody, mouse IgG1, V domains shown)
VH: EVQLLESGGDLVQPGGSLRLSCAASGFTFSSYAMSWVRQAPGKGLEWVSVISGSGSSTDYADSVKGRFTISRDNSRDTLHLQMNSLRAEDTAVYYCAKTFYYFYGLDVWGQGTTVTVSS
VL: DIQMTQSPSSLSASLRDRVTITCRASQGISNYLAWYQQKPGKVPKVLIYAASTLQSGVPSRFSGSGSGTVFTLTISSLQTEDVATYYCQKYSSAPFTFGPGTKVDIK
notes: Human variable domains, mouse IgG1 Fc (H1M)
As to B6, in test [1], the “% Maximum blocking” value is 69% and the IC50 stood at 0.32 nM. For the same molecule, in test [4], the “% Maximum blocking” value worked out at 41% and the IC50 stood at 0.22 nM. In addition, in test [2], the “mAb-1 Binding to the Pre-complex” value was found to be 0.17 nm. In addition, in test [3], the koff was 0.000967 s⁻¹, the t½ came out at 12 min and the “t½ Ratio (pH 7.4/pH 6.0)” value is 3.4. Also, in test [5], the koff came to 0.00115 s⁻¹, the t½ worked out at 10 min and the “t½ Ratio (pH 7.4/pH 6.0)” value worked out at 2.9.

B7: H1M9565N (antibody, mouse IgG1, V domains shown)
VH: QVTLKESGPVLVKPTESLTLTCSVSGFSLSNVRMGVSWIRQSPGKALEWLAHIFSNDEKSYTTSLKTRLTISKDTSRSQVVLTMTDMDPGDTATYYCARIRNLAFNYWGQGTLVTVSS
VL: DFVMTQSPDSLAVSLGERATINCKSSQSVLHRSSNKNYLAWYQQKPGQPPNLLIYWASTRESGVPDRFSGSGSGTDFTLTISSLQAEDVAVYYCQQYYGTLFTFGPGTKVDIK
notes: as for B6
Turning to B7, in test [1], the “% Maximum blocking” value came out at 68% and the IC50 was 22 nM. For the same molecule, in test [4], the “% Maximum blocking” value amounted to 86% and the IC50 is 12 nM. Moreover, in test [5], the off-rate (koff) was determined as 0.000228 s⁻¹, the t½ was found to be 51 min and the “t½ Ratio (pH 7.4/pH 6.0)” value is 1.1.
